This note sets out measurements from US20180118829A1 (JOUNCE THERAPEUTICS, published 2018).

Assay [1] addresses Human PD-1 (monovalent antigen) (human, UniProt Q15116 25-167, limits assumed). Kind of assay: ForteBio BLI, IgG on AHQ sensor, monovalent antigen in solution. (Biolayer interferometry detects binding as a change in optical thickness at a sensor tip.)
Procedure: (§1) The affinity of the PD-1 antibodies was determined by measuring their KD by ForteBio or MSD-SET. […] Briefly, ForteBio affinity measurements were performed by loading IgGs on-line onto AHQ sensors. Sensors were equilibrated off-line in assay buffer for 30 min and then monitored on-line for 60 seconds for baseline establishment. Sensors with loaded IgGs were exposed to 100 nM antigen for 5 minutes, afterwards they were transferred to assay buffer for 5 min for off-rate measurement. Kinetics were analyzed using the 1:1 binding model.
The target of assay [2] is T1, Mouse PD-1 (monovalent antigen) (mouse, UniProt Q02242 25-167, limits assumed).
T1 sequence (looked up): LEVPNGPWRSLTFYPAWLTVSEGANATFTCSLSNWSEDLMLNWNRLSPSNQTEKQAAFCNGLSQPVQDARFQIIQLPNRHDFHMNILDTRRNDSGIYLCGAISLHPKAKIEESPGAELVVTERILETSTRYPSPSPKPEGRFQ
The description is as above.
Procedure: as §1

The target of assay [3] is Human PD-1 L128A ECD-Fc-His6 (human). The experiment in a line: BLI (ForteBio OctetRED96), PD-1 ECD-Fc-His6 panel; Reduced = affinity reduced >10-fold and <100-fold vs WT human PD-1.
Sequence of Human PD-1 L128A ECD-Fc-His6 (human) (chain, as listed by the source L128A L128A limits assumed): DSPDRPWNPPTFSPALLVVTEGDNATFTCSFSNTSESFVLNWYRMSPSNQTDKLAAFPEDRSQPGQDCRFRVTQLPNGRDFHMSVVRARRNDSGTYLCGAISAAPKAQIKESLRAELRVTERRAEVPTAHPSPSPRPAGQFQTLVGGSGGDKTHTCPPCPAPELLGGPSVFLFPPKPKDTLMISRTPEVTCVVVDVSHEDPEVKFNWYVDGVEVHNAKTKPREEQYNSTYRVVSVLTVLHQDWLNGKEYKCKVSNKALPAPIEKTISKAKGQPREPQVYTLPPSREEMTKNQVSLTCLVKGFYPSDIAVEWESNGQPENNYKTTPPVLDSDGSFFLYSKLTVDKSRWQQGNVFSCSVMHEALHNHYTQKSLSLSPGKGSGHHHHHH
Procedure: (§2) All protein interactions were assessed on a ForteBio OctetRED96 instrument. Proteins were diluted in kinetics buffer formulation (PBS +0.1% BSA, 0.02% Tween20, 0.05% sodium azide) with a sample volume was 220 μl/well. Ligand concentrations were normalized at 10 μg/ml and analyte concentrations at 100 nM. The blocking reagent was employed at a concentration of 250 μg/ml. Sensor equilibration time was set for 60 sec, and sample loading time established at 300 sec. Human Fc blocking time was set for 300 sec. Analysis of association time was set for 300 sec and dissociation time for 600 sec.
In assay [4] the target is Human PD-1 I126A ECD-Fc-His6 (human). Described as above.
Sequence of Human PD-1 I126A ECD-Fc-His6 (human) (chain, as listed by the source I126A I126A limits assumed): as the sequence (chain, as listed by the source L128A L128A limits assumed) above, with I101A, A103L counted along it
Procedure: as §2
Assay [5] has as its target T2, Mouse PD-1 ECD-Fc-His6 (mouse).
T2 construct: also called Mouse WT PD-1 ECD-Fc fusion
Kind of assay: BLI (ForteBio OctetRED96), PD-1 ECD-Fc-His6 panel; Y = affinity within ~5-fold of WT human PD-1.
Procedure: as §2

The target in assay [6] is T3, Human PD-1 N33-Q167 ECD-Fc-His6 (human).
T3 construct: also called N-terminal truncated variant N33-Q167
T3 sequence (chain, as listed by the source limits assumed): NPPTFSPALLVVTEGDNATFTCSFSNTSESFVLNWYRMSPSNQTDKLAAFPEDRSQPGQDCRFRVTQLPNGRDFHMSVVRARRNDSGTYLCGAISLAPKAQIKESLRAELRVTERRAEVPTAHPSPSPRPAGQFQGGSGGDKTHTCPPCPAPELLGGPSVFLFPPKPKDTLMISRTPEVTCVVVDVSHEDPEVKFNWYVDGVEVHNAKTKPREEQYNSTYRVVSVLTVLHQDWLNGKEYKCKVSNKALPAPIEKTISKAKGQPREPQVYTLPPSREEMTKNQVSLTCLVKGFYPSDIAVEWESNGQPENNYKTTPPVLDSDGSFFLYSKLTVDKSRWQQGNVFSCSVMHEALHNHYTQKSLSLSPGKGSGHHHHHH
The description is as above.
Procedure: as §2

In assay [7] the target is T4, Human PD-1 extracellular domain (ECD)-Fc-His6 (human).
T4 construct: also called Human WT PD-1 ECD-Fc fusion
T4 sequence (chain, as listed by the source limits assumed): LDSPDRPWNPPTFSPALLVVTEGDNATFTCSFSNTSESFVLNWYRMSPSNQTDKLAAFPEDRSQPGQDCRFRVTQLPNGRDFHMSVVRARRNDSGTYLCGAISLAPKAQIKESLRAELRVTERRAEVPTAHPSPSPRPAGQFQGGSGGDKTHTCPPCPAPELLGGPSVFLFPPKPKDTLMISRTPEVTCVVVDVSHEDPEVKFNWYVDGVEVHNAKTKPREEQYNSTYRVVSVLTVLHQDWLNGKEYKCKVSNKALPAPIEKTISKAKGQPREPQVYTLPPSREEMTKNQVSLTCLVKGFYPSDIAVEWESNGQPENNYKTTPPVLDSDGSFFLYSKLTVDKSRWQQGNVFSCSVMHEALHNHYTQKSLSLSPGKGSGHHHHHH
Described as above.
Procedure: as §2

In assay [8] the target is T5, Cynomolgus monkey PD-1 ECD-Fc-His6 (cynomolgus monkey).
T5 construct: also called Cyno WT PD-1 ECD-Fc fusion
T5 sequence (chain, as listed by the source limits assumed): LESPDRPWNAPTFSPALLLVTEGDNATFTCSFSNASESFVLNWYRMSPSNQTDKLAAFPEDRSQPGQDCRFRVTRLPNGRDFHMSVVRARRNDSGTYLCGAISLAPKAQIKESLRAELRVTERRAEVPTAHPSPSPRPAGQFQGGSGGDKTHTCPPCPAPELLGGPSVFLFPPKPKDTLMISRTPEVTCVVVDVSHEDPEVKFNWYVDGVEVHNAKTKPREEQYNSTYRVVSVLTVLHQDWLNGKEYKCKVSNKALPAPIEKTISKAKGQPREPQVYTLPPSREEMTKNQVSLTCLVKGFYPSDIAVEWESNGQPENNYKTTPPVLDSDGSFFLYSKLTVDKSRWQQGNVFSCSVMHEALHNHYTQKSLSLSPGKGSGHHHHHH
The assay is described as above.
Procedure: as §2

Assay [9] has as its target Human PD-1 K78A ECD-Fc-His6 (human). The description is as above.
Procedure: as §2
Assay [10] concerns the target Human PD-1 R86L ECD-Fc-His6 (human). Described as above.
Procedure: as §2
Assay [11] addresses Human PD-1 D85G/R86L ECD-Fc-His6 (human). Described as above.
Procedure: as §2
The target in assay [12] is Human PD-1 D85G ECD-Fc-His6 (human). Described as above.
Sequence of Human PD-1 D85G ECD-Fc-His6 (human) (chain, as listed by the source D85G D85G limits assumed): as the sequence (chain, as listed by the source L128A L128A limits assumed) above, with D60G, A103L counted along it
Procedure: as §2
Assay [13] has as its target Rat P129H PD-1 ECD-Fc-His6 (rat). The assay is described as above.
Procedure: as §2

Sequence of Human PD-1 (monovalent antigen) (Q15116 25-167 limits assumed): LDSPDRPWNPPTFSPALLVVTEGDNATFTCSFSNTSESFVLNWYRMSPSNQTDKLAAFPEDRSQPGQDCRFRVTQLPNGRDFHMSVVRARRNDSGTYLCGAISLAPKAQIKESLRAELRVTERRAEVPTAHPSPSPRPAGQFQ
Sequence of Human PD-1 R86L ECD-Fc-His6 (human) (chain, as listed by the source R86L R86L limits assumed): as the sequence (chain, as listed by the source L128A L128A limits assumed) above, with R61L, A103L counted along it
Sequence of Human PD-1 D85G/R86L ECD-Fc-His6 (human) (chain, as listed by the source D85G R86L D85G R86L limits assumed): as the sequence (chain, as listed by the source L128A L128A limits assumed) above, with D60G, R61L, A103L counted along it
Sequence of Rat P129H PD-1 ECD-Fc-His6 (rat) (chain, as listed by the source P129H P129H limits assumed): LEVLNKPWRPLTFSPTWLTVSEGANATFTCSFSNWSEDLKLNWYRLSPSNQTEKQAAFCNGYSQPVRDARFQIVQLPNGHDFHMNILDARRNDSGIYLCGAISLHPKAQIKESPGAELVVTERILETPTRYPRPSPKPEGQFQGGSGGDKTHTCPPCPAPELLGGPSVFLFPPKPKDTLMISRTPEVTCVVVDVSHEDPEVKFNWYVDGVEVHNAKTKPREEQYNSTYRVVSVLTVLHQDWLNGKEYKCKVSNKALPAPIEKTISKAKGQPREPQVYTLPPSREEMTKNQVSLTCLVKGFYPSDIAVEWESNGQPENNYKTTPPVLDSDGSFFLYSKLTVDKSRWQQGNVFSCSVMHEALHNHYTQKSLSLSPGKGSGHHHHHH
Sequence of Human PD-1 K78A ECD-Fc-His6 (human) (chain, as listed by the source K78A K78A limits assumed): as the sequence (chain, as listed by the source L128A L128A limits assumed) above, with K53A, A103L counted along it

B1: antibody 13406 (antibody, V domains shown)
VH: QVQLVQSGAEVKKPGASVKVSCKASGYTFDQYYMHWVRQAPGQGLEWMGIINPSGGSTAYAQKFQGRVTMTRDTSTSTVYMELSSLRSEDTAVYYCARGGTYYDYTYWGQGTLVTVSS
VL: DIQMTQSPSTLSASVGDRVTITCRASQSISSWLAWYQQKPGKAPKLLIYEASSLESGVPSRFSGSGSGTEFTLTISSLQPDDFATYYCQQYNSFPPTFGGGTKVEIK
As usually defined, the Kd is the free concentration of one partner at which half of the binding sites on the other are occupied at equilibrium, for simple one-to-one binding. In the case of B1, the dissociation constant Kd was 3.2 nM in assay [1] and 3.5 nM in [2].

B2: 13407 Fab (Fab, V domains shown)
VH: QVQLVQSGAEVKKPGASVKVSCKASGYTFPSYYMHWVRQAPGQGLEWMGIINPEGGSTAYAQKFQGRVTMTRDTSTSTVYMELSSLRSEDTAVYYCARGGTYYDYTYWGQGTLVTVSS
VL: DIQMTQSPSTLSASVGDRVTITCRASQSISSWLAWYQQKPGKAPKLLIYEASSLESGVPSRFSGSGSGTEFTLTISSLQPDDFATYYCQQYNSFPPTFGGGTKVEIK
As to B2, the binding result in assay [3], in assay [4], in assay [5], in [6], in assay [7] and in assay [8] was “binds” throughout. Moreover, the binding result in [9], in assay [10], in assay [11], in assay [12] and in [13] was “binds” throughout.

B3: antibody 13405 (antibody, V domains shown)
VH: QVQLVQSGAEVKKPGASVKVSCKASGYTFASYYMGWVRQAPGQGLEWMGIINPAGGSTAYAQKFQGRVTMTRDTSTSTVYMELSSLRSEDTAVYYCARHEYGMDVWGQGTTVTVSS
VL: DIQMTQSPSTLSASVGDRVTITCRASQSISSWLAWYQQKPGKAPKLLIYEASSLESGVPSRFSGSGSGTEFTLTISSLQPDDFATYYCQQYNSFPPTFGGGTKVEIK
For the molecule B3, the Kd in assay [1] was determined as 73 nM; in [2], 7.2 nM.

B4: antibody 13407 (antibody, V domains shown)
VH: QVQLVQSGAEVKKPGASVKVSCKASGYTFPSYYMHWVRQAPGQGLEWMGIINPEGGSTAYAQKFQGRVTMTRDTSTSTVYMELSSLRSEDTAVYYCARGGTYYDYTYWGQGTLVTVSS
VL: DIQMTQSPSTLSASVGDRVTITCRASQSISSWLAWYQQKPGKAPKLLIYEASSLESGVPSRFSGSGSGTEFTLTISSLQPDDFATYYCQQYNSFPPTFGGGTKVEIK
In the case of B4, the Kd in [1] amounted to 3.9 nM; in assay [2], 3.2 nM.

B5: antibody 13408 (antibody, V domains shown)
VH: QVQLVQSGAEVKKPGASVKVSCKASGYTFSDYYMHWVRQAPGQGLEWMGIINPSGGVTAYAQKFQGRVTMTRDTSTSTVYMELSSLRSEDTAVYYCARGGTYYDYTYWGQGTLVTVSS
VL: DIQMTQSPSTLSASVGDRVTITCRASQSISSWLAWYQQKPGKAPKLLIYEASSLESGVPSRFSGSGSGTEFTLTISSLQPDDFATYYCQQYNSFPPTFGGGTKVEIK
As to B5, the Kd in [1] amounted to 1.2 nM; in assay [2], 5.3 nM.

B6: antibody 12228 (antibody, V domains shown)
VH: QVQLVQSGAEVKKPGASVKVSCKASGYTFTSYYMHWVRQAPGQGLEWMGIINPSGGSTSYAQKFQGRVTMTRDTSTSTVYMELSSLRSEDTAVYYCARGGTYYDYTYWGQGTLVTVSS
VL: DIQMTQSPSTLSASVGDRVTITCRASQSISSWLAWYQQKPGKAPKLLIYEASSLESGVPSRFSGSGSGTEFTLTISSLQPDDFATYYCQQYNSFPPTFGGGTKVEIK
Regarding B6, the Kd came to 49 nM in [1] and 6.3 nM in assay [2].
